Laboratory results published in patent US20180057596A1 (AstraZeneca / MedImmune, published 2018).

T1: human IL4Rα/Fc (R and D Systems 604-4R) (human, UniProt P24394 26-231, limits assumed, biotin labelled in the assay of Example 5)
T1 construct: bought protein; also called IL-4Rα/Fc (R&D systems Cat. No. 604-4R-050); not shown: Fc part of the bought fusion
T1 sequence (looked up): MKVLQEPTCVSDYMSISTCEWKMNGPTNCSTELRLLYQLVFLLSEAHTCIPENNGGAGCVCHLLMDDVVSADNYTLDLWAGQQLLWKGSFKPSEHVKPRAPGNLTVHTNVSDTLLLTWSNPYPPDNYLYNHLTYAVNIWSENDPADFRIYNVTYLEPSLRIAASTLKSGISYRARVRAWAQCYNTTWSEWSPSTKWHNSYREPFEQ


Legend:
[1] = molecular target: T2, cynomolgus IL4Rα/Fc HIS6 (HEK expressed) (cynomolgus monkey); test: HTRF receptor-ligand assay, purified scFv against biotinylated cynomolgus IL4
T2 construct: also called Cyno IL4R; cynomolgus IL-4Rα HIS Fc (in house HEK-EBNA derived); not shown: HIS6 tag
T2 sequence (chain, as listed by the source): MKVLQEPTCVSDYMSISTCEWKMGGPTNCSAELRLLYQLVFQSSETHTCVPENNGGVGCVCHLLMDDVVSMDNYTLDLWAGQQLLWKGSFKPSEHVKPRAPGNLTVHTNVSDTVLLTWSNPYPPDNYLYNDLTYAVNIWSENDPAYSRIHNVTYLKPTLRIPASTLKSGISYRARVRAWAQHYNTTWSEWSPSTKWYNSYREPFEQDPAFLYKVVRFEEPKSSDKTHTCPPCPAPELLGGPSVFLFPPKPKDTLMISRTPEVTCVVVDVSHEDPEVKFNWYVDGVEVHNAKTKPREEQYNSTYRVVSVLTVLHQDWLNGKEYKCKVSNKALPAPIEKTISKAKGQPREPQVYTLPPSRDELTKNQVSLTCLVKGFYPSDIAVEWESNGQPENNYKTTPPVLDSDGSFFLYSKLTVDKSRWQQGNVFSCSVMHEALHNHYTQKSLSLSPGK

[2] = molecular target: T1, human IL4Rα/Fc (R and D Systems 604-4R); test: HTRF receptor-ligand assay, purified scFv against biotinylated human IL4

| Binder | Ki [1] [nM] | Ki [2] [nM] |
| --- | --- | --- |
| Antibody 3 scFv (scFv, V domains shown, tested as purified scFv) VH: QVQLVQSGAEVKKPGASVKVSCKASGYAFTSYYMHWARQAPGQGLEWMGIINPSGGSTSYAQKFQGRVTMTRDTSTSTVYMELSSLRSEDTAVYYCARGKLLKNPWGKGTLVTVSS VL: QSVLTQPPSVSAAPGQKVTISCSGGSSNIGNSYVSWYQQLPGTAPKLLIYDNNKRPSGIPDRFSGSKSGTSATLAITGLQTGDEADYYCGTWFGTPASNYVFGTGTKLTVL | 48 | 0.5 |
| Antibody 20 scFv (scFv, V domains shown, tested as purified scFv) VH: QVQLVQSGAEVKKPGASVKVSCKASGYAFTSYYMHWARQAPGQGLEWMGIINPSGGSTSYAQKFQGRVTMTRDTSTSTVYMELSSLRSEDTAVYYCARGKYWMYDWGKGTLVTVSS VL: QSVLTQPPSVSAAPGQKVTISCSGGSSNIGNSYVSWYQQLPGTAPKLLIYDNNKRPSGIPDRFSGSKSGTSATLAITGLQTGDEADYYCGTWDTSTVWEWPFGTGTKLTVL | 4.2 | 0.7 |
| Antibody 36 scFv (scFv, V domains shown, tested as purified scFv) VH: QVQLVQSGAEVKKPGASVKVSCKASGYAFTSYYMHWARQAPGQGLEWMGIINPSGGSASYAQKFQGRVTMTRDTSTSTVYMELSSLRSEDTAVYYCARGKYWMYDWGKGTLVTVSS VL: QSVLTQPPSVSAAPGQKVTISCSGGSSNIGNSYVSWYQQLPGTAPKLLIYDNNKRPSGIPDRFSGSKSGTSATLAITGLQTGDEADYYCGTWDSSTVWEWPFGTGTKLTVL | 5.3 | 0.1 |
| Antibody 11 scFv (scFv, V domains shown, tested as purified scFv) VH: QVQLVQSGAEVKKPGASVKVSCKASGYAFTSYYMHWARQAPGQGLEWMGIINPSGGSTSYAQKFQGRVTMTRDTSTSTVYMELSSLRSEDTAVYYCARGKWWFYDWGKGTLVTVSS VL: QSVLTQPPSVSAAPGQKVTISCSGGSSNIGNSYVSWYQQLPGTAPKLLIYDNNKRPSGIPDRFSGSKSGTSATLAITGLQTGDEADYYCGTWDTSPSMIPLFGTGTKLTVL | 26.1 | 0.7 |
| Antibody 29 scFv (scFv, V domains shown, tested as purified scFv) VH: QVQLVQSGAEVKKPGASVKVSCKASGYAFTSYYMHWARQAPGQGLEWMGIINPSGGSTSYAQKFQGRVTMTRDTSTSTVYMELSSLRSEDTAVYYCARGKYWMYDWGKGTRVTVSS VL: QSVLTQPPSVSAAPGQKVTISCSGGSSNIGNSYVSWYQQLPGTAPKLLIYDNNKRPSGIPDRFSGSKSGTSATLAITGLQTGDEADYYCGTWDTSPVWEWPFGTGTKLTVL | 2.4 | 0.061 |
| Antibody 5 scFv (scFv, V domains shown, tested as purified scFv) VH: QVQLVQSGAEVKKPGASVKVSCKASGYAFTSYYMHWARQAPGQGLEWMGIINPSGGSTSYAQKFQGRVTMTRDTSTSTVYMELSSLRSEDTAVYYCARGKWWLYDWGKGTLVTVSS VL: QSVLTQPPSVSAAPGQKVTISCSGGSSNIGNSYVSWYQQLPGTAPKLLIYDNNKRPSGIPDRFSGSKSGTSATLAITGLQTGDEADYYCGTWDTSSPPQPIFGTGTKLTVL | 3.8 | 0.6 |
| Antibody 9 scFv (scFv, V domains shown, tested as purified scFv) VH: QVQLVQSGAEVKKPGASVKVSCKASGYAFTSYYMHWARQAPGQGLEWMGIINPSGGSTSYAQKFQGRVTMTRDTSTSTVYMELSSLRSEDTAVYYCARGKWWLYNWGKGTLVTVSS VL: QSVLTQPPSVSAAPGQKVTISCSGGSSNIGNSYVSWYQQLPGTAPKLLIYDNNKRPSGIPDRFSGSKSGTSATLAITGLQTGDEADYYCGTWDTSTTMYPLFGTGTKLTVL | 12.9 | 0.1 |
| Antibody 34 scFv (scFv, V domains shown, tested as purified scFv) VH: QVQLVQSGAEVKKPGASVKVSCKASGYAFTSYYMHWARQAPGQGLEWMGIINPSGGSTSYAQKFQGRVSMTRDTSTSTVYMELSSLRSEDTAVYYCARGKYWMYDWGKGTLVTVSS VL: QSVLTQPPSVSAAPGQKVTISCSGGSSNIGNSYVSWYQQLPGTAPKLLIYDNNKRPSGIPDRFSGSKSGTSATLAITGLQTGDEADYFCGTWDTSTVWEWPFGTGTKLTVL | 1.2 | 0.056 |
| Antibody 7 scFv (scFv, V domains shown, tested as purified scFv) VH: QVQLVQSGAEVKKPGASVKVSCKASGYAFTSYYMHWARQAPGQGLEWMGIINPSGGSTSYAQKFQGRVTMTRDTSTSTVYMELSSLRSEDTAVYYCARGKWWWQYWGKGTLVTVSS VL: QSVLTQPPSVSAAPGQKVTISCSGGSSNIGNSYVSWYQQLPGTAPKLLIYDNNKRPSGIPDRFSGSKSGTSATLAITGLQTGDEADYYCGTWDTSSPPQPIFGTGTKLTVL | 16.5 | 1.1 |
| Antibody 14 scFv (scFv, V domains shown, tested as purified scFv) VH: QVQLVQSGAEVKKPGASVKVSCKASGYAFTSYYMHWARQAPGQGLEWMGIINPSGGSTSYAQKFQGRVTMTRDTSTSTVYMELSSLRSEDTAVYYCARGKWWLYNWGKGTLVTVSS VL: QSVLTQPPSVSAAPGQKVTISCSGGSSNIGNSYVSWYQQLPGTAPKLLIYDNNKRPSGIPDRFSGSKSGTSATLAITGLQTGDEADYYCGTWDTSPPTKPLFGTGTKLTVL | 27.7 | 0.6 |
| Antibody 13 scFv (scFv, V domains shown, tested as purified scFv) VH: QVQLVQSGAEVKKPGASVKVSCKASGYAFTSYYMHWARQAPGQGLEWMGIINPSGGSTSYAQKFQGRVTMTRDTSTSTVYMELSSLRSEDTAVYYCARGKWWLYDWGKGTLVTVSS VL: QSVLTQPPSVSAAPGQKVTISCSGGSSNIGNSYVSWYQQLPGTAPKLLIYDNNKRPSGIPDRFSGSKSGTSATLAITGLQTGDEADYYCGTWDTSTTLQPLFGTGTKLTVL | 22.2 | 0.3 |
| Antibody 6 scFv (scFv, V domains shown, tested as purified scFv) VH: QVQLVQSGAEVKKPGASVKVSCKASGYAFTSYYMHWARQAPGQGLEWMGIINPSGGSTSYAQKFQGRVTMTRDTSTSTVYMELSSLRSEDTAVYYCARGKYWMYDWGKGTLVTVSS VL: QSVLTQPPSVSAAPGQKVTISCSGGSSNIGNSYVSWYQQLPGTAPKLLIYDNNKRPSGIPDRFSGSKSGTSATLAITGLQTGDEADYYCGTWDTSTTYHPIFGTGTKLTVL | 3.5 | 0.3 |
| Antibody 2 scFv (scFv, V domains shown, tested as purified scFv) VH: QVQLVQSGAEVKKPGASVKVSCKASGYAFTSYYMHWARQAPGQGLEWMGIINPSGGSTSYAQKFQGRVTMTRDTSTSTVYMELSSLRSEDTAVYYCARGKWWLYNWGKGTLVTVSS VL: QSVLTQPPSVSAAPGQKVTISCSGGSSNIGNSYVSWYQQLPGTAPKLLIYDNNKRPSGIPDRFSGSKSGTSATLAITGLQTGDEADYYCGTWDTSQPPNPLFGTGTKLTVL | 4.3 | 0.6 |
| Antibody 32 scFv (scFv, V domains shown, tested as purified scFv) VH: QVQLVQSGAEVKKPGASVKVSCKASGYAFTSYYMHWARQAPGQGLEWMGIINPSGGSTSYAQKFQGRVTMTRDTSTSTVYMELSSLRSEDTAVYYCARGKYWMYDWGKGTLVTVSS VL: QSVLTQPPSVSAAPGQKVTISCSGGSSNIGNSYVSWYQQLPGTAPKLLIYDNNKRPSGIPDRFSGSKSGTSATLAITGLQTGDEADYFCGTWDTSTAWEWPFGTGTKLTVL | 1.3 | 0.075 |
| Antibody 12 scFv (scFv, V domains shown, tested as purified scFv) VH: QVQLVQSGAEVKKPGASVKVSCKASGYAFTSYYMHWARQAPGQGLEWMGIINPSGGSTSYAQKFQGRVTMTRDTSTSTVYMELSSLRSEDTAVYYCARGKWWFYDWGKGTLVTVSS VL: QSVLTQPPSVSAAPGQKVTISCSGGSSNIGNSYVSWYQQLPGTAPKLLIYDNNKRPSGIPDRFSGSKSGTSATLAITGLQTGDEADYYCGTWDTSTTMYPLFGTGTKLTVL | 7.2 | 0.3 |
| Antibody 4 scFv (scFv, V domains shown, tested as purified scFv) VH: QVQLVQSGAEVKKPGASVKVSCKASGYAFTSYYMHWARQAPGQGLEWMGIINPSGGSTSYAQKFQGRVTMTRDTSTSTVYMELSSLRSEDTAVYYCARGKWWLYNWGKGTLVTVSS VL: QSVLTQPPSVSAAPGQKVTISCSGGSSNIGNSYVSWYQQLPGTAPKLLIYDNNKRPSGIPDRFSGSKSGTSATLAITGLQTGDEADYYCGTWDTSSPPQPIFGTGTKLTVL | 6.8 | 0.8 |
| Antibody 17 scFv (scFv, V domains shown, tested as purified scFv) VH: QVQLVQSGAEVKKPGASVKVSCKASGYAFTSYYMHWARQAPGQGLEWMGIINPSGGSTSYAQKFQGRVTMTRDTSTSTVYMELSSLRSEDTAVYYCARGKWWWQHWGKGTLVTVSS VL: QSVLTQPPSVSAAPGQKVTISCSGGSSNIGNSYVSWYQQLPGTAPKLLIYDNNKRPSGIPDRFSGSKSGTSATLAITGLQTGDEADYYCGTWDTSPVDRPIFGTGTKLTVL | 43.5 | 0.9 |
| Antibody 39 scFv (scFv, V domains shown, tested as purified scFv) VH: QVQLVQSGAEVKKPGASVKVSCKASGYAFTSYYMHWARQAPGQGLEWMGIINPRGGSTSYAQKFQGRVTMTRDTSTSTVYMELSSLRSEDTAVYYCARGKYWMYDWGKGTLVTVSS VL: QSVLTQPPSVSAAPGQKVTISCSGGSSNIGNSYVSWYQQLPGTAPKLLIYDNNKRPSGIPDRFSGSKSGTSATLAITGLQTGDEADYYCGTWDTSTAWEWPFGTGTKLTVL | 1.6 | 0.027 |
| Antibody 10 scFv (scFv, V domains shown, tested as purified scFv) VH: QVQLVQSGAEVKKPGASVKVSCKASGYAFTSYYMHWARQAPGQGLEWMGIINPSGGSTSYAQKFQGRVTMTRDTSTSTVYMELSSLRSEDTAVYYCARGKWWLYDWGKGTLVTVSS VL: QSVLTQPPSVSAAPGQKVTISCSGGSSNIGNSYVSWYQQLPGTAPKLLIYDNNKRPSGIPDRFSGSKSGTSATLAITGLQTGDEADYYCGTWDTSTVLTPIFGTGTKLTVL | 19.6 | 0.5 |
| Antibody 8 scFv (scFv, V domains shown, tested as purified scFv) VH: QVQLVQSGAEVKKPGASVKVSCKASGYAFTSYYMHWARQAPGQGLEWMGIINPSGGSTSYAQKFQGRVTMTRDTSTSTVYMELSSLRSEDTAVYYCARGKWWWQYWGKGTLVTVSS VL: QSVLTQPPSVSAAPGQKVTISCSGGSSNIGNSYVSWYQQLPGTAPKLLIYDNNKRPSGIPDRFSGSKSGTSATLAITGLQTGDEADYYCGTWDTSTTYHPIFGTGTKLTVL | 9.4 | 0.4 |
